Assay results taken from the supplement of paper PMC6757056.
± gives the standard deviation of the averaged measurements.

B1: library; a variant is named by its letters at N, in order (parent)
chain: GCUGUCACCGAGAAACUGUGAAGUAUAUCUUAAACCUGGGCACUUAAAAGAUAUAUGGAGUUAGUAGUGCAACCUGCUCGGUCUGAUGAGUCCNNNNNNGGACGAAACAGC

How the values were obtained:
cyclic di-GMP [1] = variants of: B1; assay: FACS-Seq fitted mean relative fluorescence mCherry/BFP without ligand (log10 relative fluorescence); HEK293T; ligand: cyclic di-GMP (c-di-GMP-II aptamer); higher = higher reporter protein expression; settings: ligand present: no
In short: (§1)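 An mCherry reporter containing the ribozyme switch and an EF1α-BFP marker were introduced by lentivirus into HEK293T libraries. Cells were enriched, incubated 48 h with or without ligand, sorted into 6 bins by mCherry/BFP, and bin genomic DNA was PCR-amplified, barcoded and sequenced on MiSeq. Fluorescence represents the normalized fitted normal mean of the bin counts. Fitting was done on log10(mCherry/BFP), scaling to five spiked-in control ribozymes.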

cyclic di-GMP [2] = variants of: B1; assay: normalized RNA/DNA level without ligand (relative to sTRSVctl = 100) (log10 (% of sTRSVctl)); HEK293T; ligand: cyclic di-GMP (c-di-GMP-II aptamer); higher = less ribozyme self-cleavage, higher mRNA level; settings: reporter: mCherry (pCS4076), ligand present: no
In short: (§2)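 RNA level was computed as RNA reads over DNA reads divided by a spiked-in non-cleaving sequence or by the top sequences, then scaled and log-transformed. Scaling was ×100 with log10, the top group was 25 sequences, and the threshold was ≥100 DNA reads. The reads came from HEK293T cells transfected at 4 µg per 6-well well with ribozyme switch library plasmids (mCherry, or eGFP in some ligand experiments). Total RNA was extracted with EDTA 72 h after transfection, with any ligand added 1 h before it.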

cyclic di-GMP [3] = variants of: B1; assay: FACS-Seq fitted mean relative fluorescence mCherry/BFP with ligand (log10 relative fluorescence); HEK293T; ligand: cyclic di-GMP (c-di-GMP-II aptamer); ligand concentration (+) FACS-Seq: 1 mM; higher = higher reporter protein expression; settings: ligand present: yes
In short: as §1

cyclic di-GMP [4] = variants of: B1; assay: normalized RNA/DNA level with ligand (relative to sTRSVctl = 100) (log10 (% of sTRSVctl)); HEK293T; ligand: cyclic di-GMP (c-di-GMP-II aptamer); ligand concentration (+) RNA-Seq: 1 mM; higher = less ribozyme self-cleavage, higher mRNA level; settings: reporter: mCherry (pCS4076), ligand present: yes
In short: as §2

Row | Variant | FACS-Seq fitted mean (log10) (cyclic di-GMP [1]) | normalized RNA/DNA level without ligand (log10) (cyclic di-GMP [2]) | FACS-Seq fitted mean (log10) (cyclic di-GMP [3]) | normalized RNA/DNA level with ligand (log10) (cyclic di-GMP [4])
1 | CGCUUA | -0.545 ± 0.077 | 1.27 ± 0.17 | -0.264 ± 0.015 | 1.46 ± 0.036
2 | GUAGUA | -0.69 ± 0.1 | 1.663 ± 0.0053 | -0.47 ± 0.075 | 1.74 ± 0.099
3 | GCAACA | -0.823 ± 0.12 | 1.55 ± 0.048 | -0.56 ± 0.014 | 1.75 ± 0.12
4 | AAACGG | -0.275 ± 0.019 | 1.5 ± 0.12 | 0.0867 ± 0.11 | 1.7 ± 0.1
5 | UCGCCA | 0.132 ± 0.027 | 1.71 ± 0.032 | 0.335 ± 0.037 | 1.88 ± 0.073
6 | GAAAAU | -0.15 ± 0.048 | 1.55 ± 0.048 | 0.162 ± 0.015 | 1.74 ± 0.1
7 | CGCAAU | -0.449 ± 0.027 | 1.45 ± 0.087 | -0.206 ± 0.045 | 1.61 ± 0.078
8 | UCGAAA | -0.535 ± 0.0031 | 1.32 ± 0.069 | -0.158 ± 0.043 | 1.58 ± 0.12
9 | GCAUUG | -0.56 ± 0.071 | 1.5 ± 0.13 | -0.211 ± 0.025 | 1.71 ± 0.052
10 | CCACUA | -0.725 ± 0.038 | 1.43 ± 0.13 | -0.348 ± 0.019 | 1.66 ± 0.067
11 | CCCCUA | -0.244 ± 0.03 | 1.56 ± 0.054 | 0.111 ± 0.091 | 1.74 ± 0.093
12 | CUCGAA | -0.00262 ± 0.0023 | 1.41 ± 0.12 | 0.32 ± 0.035 | 1.6 ± 0.097
13 | CAGGAA | -0.629 ± 0.038 | 1.4 ± 0.099 | -0.392 ± 0.12 | 1.51 ± 0.051
14 | AUUCAG | -0.308 ± 0.062 | 1.59 ± 0.026 | -0.0248 ± 0.0054 | 1.74 ± 0.1
15 | ACGAAG | -0.359 ± 0.056 | 1.42 ± 0.13 | 0.0516 ± 0.11 | 1.63 ± 0.088
16 | UAACUC | -0.459 ± 0.11 | 1.78 ± 0.016 | -0.294 ± 0.11 | 1.88 ± 0.085
17 | GCUGAA | -0.497 ± 0.029 | 1.45 ± 0.035 | -0.115 ± 0.0012 | 1.65 ± 0.097
18 | AUUAUC | -0.473 ± 0.04 | 1.72 ± 0.062 | -0.167 ± 0.081 | 1.84 ± 0.13
